Laboratory results: the supplement of paper PMC7877785
± gives the uncertainty stated by the source.

Test: self-splicing fitness, log relative to wild type (ln ratio); higher = more splicing; Tetrahymena group I intron in knt gene, E. coli kanamycin selection, DiMSum; sequences stand for … in CUCUCU…GGAGGGAAAAGUUAUCAGGCAUGCACCUGGUAGCUAGUCUUUAAACCAAUAGAUUGCAUCGGUUUAAAAGGCAAGACCGUCAAAUUGCGGGAAAGGGGUCAACAGCCGUUCAGUACCAAGUCUCAGGGGAAACUUUGAGAUGGCCUUGCAAAGGGUAUGGUAAUAAGCUGACGGACAUGGUCCUAACCACGCAGCCAAGUCCUAAGUCAACAGAUCUUCUGUUGAUAUGGAUGCAGUUCACAGACUAAAUGUCGGUCGGGGAAGAUGUAUUCUUCUCAUAAGAUAUAGUCGGACCUCUCCUUAAUGGGAGCUAGCGGAUGAAGUGAUGCAACACUGGAGCCGCUGGGAACUAAUUUGUAUGCGAAAGUAUAUUGAUUAGUUUUGGAGUACUCGUGGUCG
How it was run: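 Colonies from six replicate transformations of E. coli BL21(DE3) were pooled and amplicon-sequenced on an Illumina HiSeq 2500. The library placed an intron with all eight P1ex-region nucleotides randomised inside the knt kanamycin-resistance gene on pET-22b(+), and cells grew overnight at 37°C or 30°C on LB agar with or without 25 μg/mL kanamycin (plus 100 μg/mL carbenicillin, 50 μM IPTG, 0.2% rhamnose). Fitness is the DiMSum error-weighted combination of wild-type-normalised replicate fold changes, kanamycin versus none.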

Sequence	self-splicing fitness (ln) (30 °C)	self-splicing fitness (ln) (37 °C)
CCCUAGCAAUAUUACGCUAA	-4.17 ± 0.3	-2.55 ± 0.22
GGAAAGCAAUAUUACGUUUU	-3.05 ± 0.14	-2.18 ± 0.18
UGAAAGCAAUAUUACGACAU	-1.26 ± 0.013	-0.435 ± 0.032
GGUCAGCAAUAUUACGCGGU	-3.97 ± 0.39	-2.26 ± 0.27
GCCAAGCAAUAUUACGGUAC	-2.01 ± 0.13	-0.941 ± 0.13
UACCAGCAAUAUUACGUCGA	-0.651 ± 0.073	-0.0658 ± 0.085
GCGAAGCAAUAUUACGCGAG	-2.08 ± 0.22	-3.24 ± 0.3
AUGCAGCAAUAUUACGAGGG	-2.51 ± 0.15	-3.09 ± 0.26
CUAGAGCAAUAUUACGAUGU	-3.45 ± 0.3	-2.2 ± 0.31
GUUAAGCAAUAUUACGGUAU	-1.36 ± 0.11	-0.895 ± 0.12
AUUAAGCAAUAUUACGGGGA	-3.62 ± 0.38	-1.41 ± 0.18
CAUAAGCAAUAUUACGGCGC	-2.68 ± 0.42	-3.17 ± 0.35
AUCUAGCAAUAUUACGGGGC	-2.42 ± 0.47	–
CUUGAGCAAUAUUACGCCCG	-2.41 ± 0.46	–
CAUAAGCAAUAUUACGUUAA	-2.6 ± 0.23	-2.92 ± 0.4
CAUCAGCAAUAUUACGUUUU	-2.67 ± 0.1	-1.8 ± 0.11
GCUUAGCAAUAUUACGUUGC	-2.46 ± 0.15	-0.535 ± 0.12
CAGAAGCAAUAUUACGAAGU	-3.9 ± 0.37	-2.48 ± 0.26
CAACAGCAAUAUUACGAUAC	-3.29 ± 0.28	-2.91 ± 0.37
GUUAAGCAAUAUUACGAUCG	-2.08 ± 0.25	-1.18 ± 0.22
CAUGAGCAAUAUUACGCGGC	-2.22 ± 0.43	-2.58 ± 0.29
AGUCAGCAAUAUUACGAAAC	–	-1.45 ± 0.28
CUAUAGCAAUAUUACGAGCU	-1.79 ± 0.48	–
UGCUAGCAAUAUUACGUCGU	-2.15 ± 0.14	-3.03 ± 0.31
CCCUAGCAAUAUUACGAGUC	-3.63 ± 0.21	-2.28 ± 0.27
CUCUAGCAAUAUUACGUUGU	-3.36 ± 0.2	-3.68 ± 0.31

Sequence	self-splicing fitness (ln) (30 °C)	self-splicing fitness (ln) (37 °C)
AUUAAGCAAUAUUACGUGUG	-1.9 ± 0.089	-1.18 ± 0.1
AGUGAGCAAUAUUACGAAUC	–	-1.49 ± 0.38
AAUCAGCAAUAUUACGCUCA	0.294 ± 0.074	0.323 ± 0.1
AGGAAGCAAUAUUACGAGUU	-3.11 ± 0.12	-1.03 ± 0.11
AUAGAGCAAUAUUACGACAG	-2.6 ± 0.18	-0.985 ± 0.2
AAAUAGCAAUAUUACGGUUG	-1.88 ± 0.094	-1.33 ± 0.12
GCGAAGCAAUAUUACGCGGC	-3.23 ± 0.22	-2.35 ± 0.25
GUGUAGCAAUAUUACGGUAU	-2.35 ± 0.12	-0.18 ± 0.12
CUUUAGCAAUAUUACGUAAG	-0.953 ± 0.081	-0.626 ± 0.11
CUGCAGCAAUAUUACGGAUU	-3.49 ± 0.18	-1.8 ± 0.16
GCUUAGCAAUAUUACGCACC	-0.796 ± 0.13	0.115 ± 0.16
CAUAAGCAAUAUUACGGUCG	0.0543 ± 0.064	-0.0112 ± 0.079
GAGAAGCAAUAUUACGAAUU	-2.27 ± 0.14	-1.13 ± 0.15
ACCAAGCAAUAUUACGAAGC	-3.94 ± 0.23	-0.918 ± 0.15
UUGCAGCAAUAUUACGAUUU	-2.64 ± 0.14	-1.22 ± 0.13
CGUAAGCAAUAUUACGAAGA	-3.07 ± 0.31	–
AUGGAGCAAUAUUACGCUGG	–	-1.53 ± 0.2
GAUCAGCAAUAUUACGUUCA	-0.939 ± 0.15	-0.942 ± 0.18
AUGCAGCAAUAUUACGGUUG	-4.33 ± 0.23	-2.21 ± 0.19
UUGGAGCAAUAUUACGUUCA	-2.45 ± 0.4	-1 ± 0.31
UUCCAGCAAUAUUACGUGGA	-3.28 ± 0.24	-2.95 ± 0.26
AUCGAGCAAUAUUACGUAGC	-4.41 ± 0.42	-1.79 ± 0.26
CCUCAGCAAUAUUACGCUAG	-4.45 ± 0.38	-1.04 ± 0.22
GCUUAGCAAUAUUACGUGGG	-1.53 ± 0.093	-1.72 ± 0.1
UUCAAGCAAUAUUACGGUUU	-3.08 ± 0.21	-1.84 ± 0.17
CUUUAGCAAUAUUACGCAGG	-2.83 ± 0.39	–

Sequence	self-splicing fitness (ln) (30 °C)	self-splicing fitness (ln) (37 °C)
CGACAGCAAUAUUACGACAG	-0.3 ± 0.069	0.0609 ± 0.084
UUGGAGCAAUAUUACGGCUU	-1.18 ± 0.46	-2.15 ± 0.48
AUAAAGCAAUAUUACGAUCG	-0.0352 ± 0.072	0.19 ± 0.097
CUAGAGCAAUAUUACGACGU	-3.28 ± 0.3	-0.837 ± 0.26
GCCAAGCAAUAUUACGGAAG	-3.55 ± 0.34	-2.57 ± 0.33
GACGAGCAAUAUUACGAUCU	-2.04 ± 0.15	-1.13 ± 0.15
UAAGAGCAAUAUUACGCACG	-2.42 ± 0.15	-1.84 ± 0.15
CAACAGCAAUAUUACGGCCC	–	-2.06 ± 0.33
AUAAAGCAAUAUUACGCUAA	-0.787 ± 0.11	-0.736 ± 0.14
UGGAAGCAAUAUUACGCACG	-0.874 ± 0.12	0.34 ± 0.15
GGUCAGCAAUAUUACGUUAA	-1.4 ± 0.099	-0.249 ± 0.088
AGGGAGCAAUAUUACGUGUU	-2.63 ± 0.31	-1.73 ± 0.29
GUCUAGCAAUAUUACGGUAA	-1.67 ± 0.11	-0.172 ± 0.11
CCCCAGCAAUAUUACGAGCC	-3.75 ± 0.26	-2.54 ± 0.25
AAUCAGCAAUAUUACGGCUA	-0.0319 ± 0.079	0.406 ± 0.094
CCGGAGCAAUAUUACGAGCC	-3.09 ± 0.31	-2.1 ± 0.42
GGCCAGCAAUAUUACGUUAU	-2.4 ± 0.13	-0.702 ± 0.11
CAUUAGCAAUAUUACGAACG	0.479 ± 0.09	0.736 ± 0.099
UUUUAGCAAUAUUACGAAGG	–	-1.85 ± 0.41
GAAAAGCAAUAUUACGGAAC	-2.14 ± 0.13	-1.25 ± 0.15
CUGAAGCAAUAUUACGUAUA	-2.8 ± 0.18	-2.19 ± 0.27
GUAGAGCAAUAUUACGGUCU	-1.46 ± 0.1	-0.783 ± 0.14
GGUUAGCAAUAUUACGGUUU	-0.608 ± 0.086	-0.0158 ± 0.11
UCGUAGCAAUAUUACGCGCA	-0.601 ± 0.11	-0.0623 ± 0.15
UCUAAGCAAUAUUACGUGCU	-4.04 ± 0.34	-2.37 ± 0.2
AGGAAGCAAUAUUACGCAGG	-3.16 ± 0.25	-2.21 ± 0.3
